Assay results taken from article PMC2786245 (Biochemistry, 2009).

Target: the molecule itself
Assay: native gel or EMSA

B1: PII Δ47−53 (deletion of the apex of the T-loop) (natural protein, Escherichia coli, UniProt P0A9Z1 1-112, looked up)
chain: MKKIDAIIKPFKLDDVREALAEVGITGMTVTEVKGFGRQKGHTELYDFLPKVKIEIVVPDDIVDTCVDTIIRTAQTGKIGDGKIFVFDVARVIRIRTGEEDDAAI
- binding result: binds
